Measured values taken from patent US20120316071A1 (published 2012).
Blank lines part the entries; values can stand above or below the binder they belong to.

Legend:
[1] = target: T1, Recombinant Human DLL4 (R&D Systems Cat#1506-D4/CF) (human, UniProt Q9NR61 27-524); experiment: ECL multispot (MSD) assay, spotted antigen; Fab 0.20 (head prints uM)
T1 construct: Bought recombinant protein; also called delta-like protein 4

[2] = target: T2, rHuman CD44/Fc Chimera, CF (R&D Systems Cat#3660-CD) (human, UniProt P16070 21-220); experiment: as above
T2 construct: Bought recombinant protein; Fc part of the bought chimera not given

[3] = target: T3, rHuman ErbB2/Fc Chimera, CF (R&D Systems Cat#1129-ER) (human, UniProt P04626 23-652); experiment: as above
T3 construct: Bought recombinant protein; Fc part of the bought chimera not given

[4] = target: T4, rHuman HGF R/c-MET/Fc Chimera, CF (R&D Systems Cat#358-MT/CF) (human, UniProt P08581 25-932); experiment: as above
T4 construct: Bought recombinant protein; also called HGF R/Fc; Fc part of the bought chimera not given

[5] = target: T5, rHuman IGF-1 sR, CF (R&D Systems Cat#391-GR) (human, UniProt P08069 31-932); experiment: as above
T5 construct: Bought soluble receptor; The column head prints only 'IGF-1'; also called insulin-like growth factor-1 soluble receptor

[6] = target: T6, rHuman Notch-1/Fc Chimera, CF (R&D Systems Cat#3647-TK) (human, UniProt P46531 19-526); experiment: as above
T6 construct: Bought recombinant protein; Fc part of the bought chimera not given

[7] = target: T7, rHuman P-Cadherin/Fc Chimera, CF (R&D Systems Cat#861-PC) (human, UniProt P22223 108-654); experiment: as above
T7 construct: Bought recombinant protein; Fc part of the bought chimera not given

[8] = target: T8, rHuman EGF R/Fc Chimera, CF (R&D Systems Cat#344-ER) (human, UniProt P00533 25-645); experiment: as above
T8 construct: Bought recombinant protein; Fc part of the bought chimera not given

[9] = target: T9, rHuman Erythropoietin R/Fc Chimera, CF (R&D Systems Cat#963-ER) (human, UniProt P19235 25-250); experiment: as above
T9 construct: Bought recombinant protein; also called EPO R; EPO R/Fc; Fc part of the bought chimera not given
T9 sequence (looked up): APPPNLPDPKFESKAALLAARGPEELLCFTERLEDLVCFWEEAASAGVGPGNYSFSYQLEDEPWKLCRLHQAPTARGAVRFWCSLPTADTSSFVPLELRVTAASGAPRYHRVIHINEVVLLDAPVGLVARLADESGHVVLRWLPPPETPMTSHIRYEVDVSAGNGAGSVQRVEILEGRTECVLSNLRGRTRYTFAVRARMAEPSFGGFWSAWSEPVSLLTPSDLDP

[10] = target: T10, rHuman IGF-1 sR, (IGF-1 sR), CF (R&D Systems Cat#391-GR) (human, UniProt P08069 31-932); experiment: MSD multispot ECL, antigen spotted, Fab 2.3 nM; blank spot 234
T10 construct: Bought soluble receptor; also called insulin-like growth factor-1 soluble receptor

[11] = target: T11, Recombinant Human DLL4 (R&D Systems Cat#1506-D4/CF) (human, UniProt Q9NR61 27-524); experiment: as above
T11 construct: Bought recombinant protein; also called rHuman DLL4; delta-like protein 4

[12] = target: T12, rHuman ErbB2/Fc Chimera, CF (R&D Systems Cat#1129-ER) (human, UniProt P04626 23-652); experiment: as above
T12 construct: Bought reagent; also called human epidermal growth factor 2 receptor

[13] = target: T13, rHuman CD44/Fc Chimera, CF (R&D Systems Cat#3660-CD) (human, UniProt P16070 21-220); experiment: as above
T13 construct: Bought reagent

[14] = target: T14, rHuman Erythropoietin R/Fc Chimera, CF (R&D Systems Cat#963-ER) (human, UniProt P19235 25-250); experiment: as above
T14 construct: Bought reagent; also called EPO R/Fc; Epo R
T14 sequence (looked up): T9 sequence (looked up)

[15] = target: T15, rHuman EGF R/Fc Chimera, CF (R&D Systems Cat#344-ER) (human, UniProt P00533 25-645); experiment: as above
T15 construct: Bought reagent; also called epidermal growth factor receptor

[16] = target: T16, rHuman Notch-1/Fc Chimera, CF (R&D Systems Cat#3647-TK) (human, UniProt P46531 19-526); experiment: as above
T16 construct: Bought reagent

[17] = target: T17, rHuman HGF R/c-MET/Fc Chimera, CF (R&D Systems Cat#358-MT/CF) (human, UniProt P08581 25-932); experiment: as above
T17 construct: Bought reagent; also called HGF R/Fc; hepatocyte growth factor receptor

[18] = target: T18, Recombinant Human DLL4 (R&D Systems Cat#1506-D4/CF) (human, UniProt Q9NR61 27-524); experiment: MSD multispot ECL, antigen spotted on plate, Fab 88.1 nM; blank spot 301
T18 construct: Bought from R&D Systems; also called rHuman DLL4; delta-like protein 4

[19] = target: T19, rHuman CD44/Fc Chimera, CF (R&D Systems Cat#3660-CD) (human, UniProt P16070 21-220); experiment: as above
T19 construct: Bought from R&D Systems; not shown: Fc of the bought chimera

[20] = target: T20, rHuman P-Cadherin/Fc Chimera, CF (R&D Systems Cat#861-PC) (human, UniProt P22223 108-654); experiment: as above
T20 construct: Bought from R&D Systems; not shown: Fc of the bought chimera

ECL signal/noise ratio [1]: 3 | ECL signal/noise ratio [2]: 1.3 | ECL signal/noise ratio [3]: 2.5 | ECL signal/noise ratio [4]: 2.4 | ECL signal/noise ratio [5]: 1.9 | ECL signal/noise ratio [6]: 1.9 | ECL signal/noise ratio [7]: 1.7 | ECL signal/noise ratio [8]: 1.5 | ECL signal/noise ratio [9]: 1.7
B1: Fab VH5-51_IGHD5-18*01>3_IGHJ4*01 G100K/G104T & V3-4_IGLJ1*01 (Fab, V domains shown)
VH: EVQLVQSGAEVKKPGESLKISCKGSGYSFTSYWIGWVRQMPGKGLEWMGIIYPGDSDTRYSPSFQGQVTISADKSISTAYLQWSSLKASDTAMYYCARRKYSYTYDYFDYWGQGTLVTVSS
VL: QTVVTQEPSFSVSPGGTVTLTCGLSSGSVSTSYYPSWYQQTPGQAPRTLIYSTNTRSSGVPDRFSGSILGNKAALTITGAQADDESDYYCVLYMGSGISYVFGTGTKVTVL
notes: Tested as a Fab; The constant parts are the same as for the parent Fab (CH1 with His6/Flag tags, lambda CL); also called KT double mutant; H:KT

ECL signal [10]: 231 ECL signal | ECL signal [11]: 3060 ECL signal | ECL signal [12]: 291 ECL signal | ECL signal [13]: 317 ECL signal | ECL signal [14]: 429 ECL signal | ECL signal [15]: 289 ECL signal | ECL signal [16]: 333 ECL signal | ECL signal [17]: 253 ECL signal
B2: Fab VH1-46_IGHD6-6*01_IGHJ1*01 & L6_IGKJ1*01 (Fab, V domains shown)
VH: QVQLVQSGAEVKKPGASVKVSCKASGYTFTSYYMHWVRQAPGQGLEWMGIINPSGGSTSYAQKFQGRVTMTRDTSTSTVYMELSSLRSEDTAVYYCAREEYSSSSAEYFQHWGQGTLVTVSS
VL: not shown
notes: Only variable domains are tied to the molecule; Tested as a Fab made in E. coli: heavy chain from Plasmid A (CH1 constant region, His6 and Flag tags), kappa light chain from Plasmid C (kappa CL); also called parent Hit Fab against DLL4; VH1-46_IGHD6-6*01_IGHJ1*01 & L6_IGKJ1*01 (parental)

ECL signal [18]: 434 | ECL signal [19]: 340 | ECL signal [20]: 278
B3: Fab VH1-46_IGHD3-10*01_IGHJ4*01 & B3_IGKJ1*01 (Fab, V domains shown)
VH: QVQLVQSGAEVKKPGASVKVSCKASGYTFTSYYMHWVRQAPGQGLEWMGIINPSGGSTSYAQKFQGRVTMTRDTSTSTVYMELSSLRSEDTAVYYCAREYYYGSGSYYNDYFDYWGQGTLVTVSS
VL: not shown
notes: Tested as a Fab made in E. coli; VH was cloned into Plasmid A (CH1 constant region, His6 and Flag tags); The kappa VL was cloned into Plasmid C (kappa CL)
